According to patent US20190225703A1 (INNATE PHARMA, published 2019):

Assays:
[1] = biological target: T1, human CD73 (ecto-5'-nucleotidase) expressed at the cell surface (human, UniProt P21589 27-549); test: flow cytometry titration on MDA-MB-231 cells, endogenous CD73
T1 construct: Used for huCD73-expressing recombinant cell lines, MDA-MB-231 cells (endogenous CD73), HEK-293T cells with wild type CD73, and primary T and B cells; also called huCD73; wild type CD73
T1 sequence: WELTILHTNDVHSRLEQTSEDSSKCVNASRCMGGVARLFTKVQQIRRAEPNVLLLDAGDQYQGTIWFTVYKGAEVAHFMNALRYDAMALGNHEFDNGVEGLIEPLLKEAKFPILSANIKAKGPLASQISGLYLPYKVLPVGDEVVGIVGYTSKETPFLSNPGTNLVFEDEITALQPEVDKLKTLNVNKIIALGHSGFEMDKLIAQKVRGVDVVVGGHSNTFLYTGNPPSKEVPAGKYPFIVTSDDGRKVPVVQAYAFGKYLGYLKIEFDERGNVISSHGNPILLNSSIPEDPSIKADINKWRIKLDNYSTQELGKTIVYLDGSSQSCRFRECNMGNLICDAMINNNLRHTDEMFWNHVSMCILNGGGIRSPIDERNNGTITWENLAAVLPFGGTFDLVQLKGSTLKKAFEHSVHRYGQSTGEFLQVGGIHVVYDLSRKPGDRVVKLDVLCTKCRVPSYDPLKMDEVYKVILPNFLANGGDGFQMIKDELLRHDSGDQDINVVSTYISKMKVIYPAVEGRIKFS
Procedure: (§1) 10⁵ cells resuspended in PBS/0.2% BSA/0.02% NaN3 (named “staining buffer”) are distributed into round bottom 96W-microplates. Dose-range of anti-CD73 antibodies was added to the plates and cells are incubated for 45 min at 4° C. Cells were washed three times in staining buffer by spinning plates at 400 g for 3 min at 4° C. PE-coupled goat anti-mouse or goat anti-human IgG Fc fragment secondary antibodies (Beckman Coulter) diluted in staining buffer were added to the cells and plates are incubated for 30 additional minutes at 4° C. Cells were washed three times as described above and analyzed on an Accury C6 flow cytometer equipped with an HTFC plate reader.
(§2) Median of fluorescence vs. antibodies concentration was plotted on graphs and EC50 is calculated using GraphPad Prism program.

[2] = biological target: T2, human CD73 mutant 5 (human, UniProt P21589 27-549); test: flow cytometry titration on HEK-293T cells transfected with CD73 mutant 5
T2 construct: Transfected in HEK-293T cells
T2 chain: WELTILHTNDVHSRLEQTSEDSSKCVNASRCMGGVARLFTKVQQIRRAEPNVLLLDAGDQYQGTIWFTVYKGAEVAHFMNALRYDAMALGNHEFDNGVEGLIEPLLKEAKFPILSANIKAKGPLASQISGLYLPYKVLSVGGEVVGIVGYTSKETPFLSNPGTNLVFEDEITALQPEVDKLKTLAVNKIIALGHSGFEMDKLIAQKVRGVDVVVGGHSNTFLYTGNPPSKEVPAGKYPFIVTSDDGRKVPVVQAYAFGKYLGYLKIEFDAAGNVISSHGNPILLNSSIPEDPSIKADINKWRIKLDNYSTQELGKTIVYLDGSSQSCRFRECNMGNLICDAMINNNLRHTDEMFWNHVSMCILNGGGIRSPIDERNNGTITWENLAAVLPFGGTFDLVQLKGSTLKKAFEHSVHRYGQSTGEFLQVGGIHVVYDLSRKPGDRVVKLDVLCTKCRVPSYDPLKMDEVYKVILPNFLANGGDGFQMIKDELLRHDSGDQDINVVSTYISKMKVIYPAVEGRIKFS

[3] = biological target: T1, human CD73 (ecto-5'-nucleotidase) …; test: flow cytometry titration on HEK-293T cells transfected with wild type human CD73
Procedure: (§3) Anti-CD73 antibodies are tested for their binding to each mutant by flow cytometry. A first experiment is performed to determine antibodies that lose their binding to one or several mutants at one concentration. To confirm a loss of binding, titration of antibodies is done on antibodies for which binding seemed to be affected by the CD73 mutations (1-0.1-0.01-0.001 μg/ml).

[4] = biological target: T3, human CD73 mutant 4 (human, UniProt P21589 27-549); test: flow cytometry titration on HEK-293T cells transfected with CD73 mutant 4
T3 construct: Transfected in HEK-293T cells
T3 chain: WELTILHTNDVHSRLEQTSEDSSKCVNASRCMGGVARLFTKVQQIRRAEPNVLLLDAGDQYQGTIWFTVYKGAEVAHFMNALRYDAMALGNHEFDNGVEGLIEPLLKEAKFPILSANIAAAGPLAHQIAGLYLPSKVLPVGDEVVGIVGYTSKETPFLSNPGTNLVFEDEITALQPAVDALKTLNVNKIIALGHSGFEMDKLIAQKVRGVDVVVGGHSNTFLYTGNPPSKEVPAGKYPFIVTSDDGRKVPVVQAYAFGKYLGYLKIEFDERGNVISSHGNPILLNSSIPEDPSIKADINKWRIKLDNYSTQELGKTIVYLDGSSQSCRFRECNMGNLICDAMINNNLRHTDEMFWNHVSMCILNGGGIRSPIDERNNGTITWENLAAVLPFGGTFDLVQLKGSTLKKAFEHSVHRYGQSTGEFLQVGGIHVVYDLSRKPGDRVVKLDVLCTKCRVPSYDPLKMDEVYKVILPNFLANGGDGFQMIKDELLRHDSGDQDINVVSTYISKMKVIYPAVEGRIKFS
Procedure: as §3

[5] = biological target: T1, human CD73 (ecto-5'-nucleotidase) …; test: flow cytometry titration on human-CD73-expressing cell line
Procedure: as §1, §2

[6] = biological target: T4, human CD73 mutant 3 (human, UniProt P21589 27-549); test: flow cytometry titration on HEK-293T cells transfected with CD73 mutant 3
T4 construct: Transfected in HEK-293T cells
T4 chain: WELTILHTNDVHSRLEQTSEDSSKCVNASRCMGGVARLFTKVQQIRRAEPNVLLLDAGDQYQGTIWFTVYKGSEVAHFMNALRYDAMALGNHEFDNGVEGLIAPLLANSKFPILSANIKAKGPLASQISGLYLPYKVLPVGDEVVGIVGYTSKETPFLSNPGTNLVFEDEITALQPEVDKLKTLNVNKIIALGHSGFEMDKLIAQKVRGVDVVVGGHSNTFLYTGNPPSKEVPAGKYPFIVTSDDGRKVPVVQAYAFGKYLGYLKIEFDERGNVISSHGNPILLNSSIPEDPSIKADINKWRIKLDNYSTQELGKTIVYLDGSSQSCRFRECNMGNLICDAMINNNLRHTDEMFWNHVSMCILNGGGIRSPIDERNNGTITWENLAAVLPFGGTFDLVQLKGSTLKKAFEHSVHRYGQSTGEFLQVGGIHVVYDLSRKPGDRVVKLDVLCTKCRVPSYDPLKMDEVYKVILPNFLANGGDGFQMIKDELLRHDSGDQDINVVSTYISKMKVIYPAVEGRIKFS

[7] = biological target: T5, mouse CD73 expressed at the cell surface (mouse, UniProt Q61503 29-551); test: flow cytometry titration on a cell line expressing mouse CD73
T5 construct: whole, on cells; Recombinant cell line expressing mouse CD73; also called moCD73
T5 sequence (looked up): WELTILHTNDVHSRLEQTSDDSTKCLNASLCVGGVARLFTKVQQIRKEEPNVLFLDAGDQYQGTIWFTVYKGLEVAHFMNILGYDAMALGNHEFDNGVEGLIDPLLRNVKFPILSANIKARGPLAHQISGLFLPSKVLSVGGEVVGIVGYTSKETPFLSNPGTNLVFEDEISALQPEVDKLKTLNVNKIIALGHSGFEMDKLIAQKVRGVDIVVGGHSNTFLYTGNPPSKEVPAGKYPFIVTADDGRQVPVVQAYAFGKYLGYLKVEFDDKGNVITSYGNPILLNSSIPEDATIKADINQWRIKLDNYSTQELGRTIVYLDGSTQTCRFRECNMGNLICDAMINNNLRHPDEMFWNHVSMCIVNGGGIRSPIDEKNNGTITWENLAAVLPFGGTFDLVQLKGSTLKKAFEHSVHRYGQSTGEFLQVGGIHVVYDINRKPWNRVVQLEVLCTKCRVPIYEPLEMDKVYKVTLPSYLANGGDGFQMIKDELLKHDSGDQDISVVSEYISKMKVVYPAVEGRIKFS
Procedure: as §1, §2

[8] = biological target: T6, cynomolgus CD73 expressed at the cell surface (cynomolgus); test: flow cytometry titration on cynomolgus-CD73-expressing cell line
T6 construct: whole, on cells; Recombinant cell line expressing cynomolgus CD73; also called cynoCD73
Procedure: as §1, §2

[9] = biological target: T7, recombinant human CD73-His extracellular domain protein, soluble dimer (human, UniProt P21589 27-547); test: SPR (Biacore T100, 25 °C), antibody captured on Protein-A, soluble dimeric CD73 injected 1.23 to 300 nM, 1:1 kinetic model, bivalent affinity
T7 construct: also called huCD73 protein; human recombinant soluble dimeric CD73
T7 sequence: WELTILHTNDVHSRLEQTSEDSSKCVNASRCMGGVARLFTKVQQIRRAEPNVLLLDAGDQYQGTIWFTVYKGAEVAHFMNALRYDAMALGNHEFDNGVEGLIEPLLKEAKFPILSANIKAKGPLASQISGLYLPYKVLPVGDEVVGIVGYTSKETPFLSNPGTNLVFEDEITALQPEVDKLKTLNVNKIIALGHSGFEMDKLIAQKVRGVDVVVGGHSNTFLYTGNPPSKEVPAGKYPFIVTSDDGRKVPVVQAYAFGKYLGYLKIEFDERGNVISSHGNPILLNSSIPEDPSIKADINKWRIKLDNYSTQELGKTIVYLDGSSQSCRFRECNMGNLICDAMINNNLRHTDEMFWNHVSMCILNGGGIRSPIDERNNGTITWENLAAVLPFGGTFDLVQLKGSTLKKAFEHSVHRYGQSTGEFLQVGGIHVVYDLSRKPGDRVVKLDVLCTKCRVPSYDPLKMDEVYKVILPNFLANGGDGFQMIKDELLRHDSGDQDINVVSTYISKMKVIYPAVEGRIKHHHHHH
Procedure: SPR measurements were performed on a Biacore T100 apparatus (Biacore GE Healthcare) at 25° C. In all Biacore experiments HBS-EP+(Biacore GE Healthcare) and NaOH 10 mM served as running buffer and regeneration buffer respectively. Sensorgrams were analyzed with Biacore T100 Evaluation software. Protein-A was purchase from (GE Healthcare). Human soluble dimeric CD73 proteins were cloned, produced and purified at Innate Pharma.
Protein-A proteins were immobilized covalently to carboxyl groups in the dextran layer on a Sensor Chip CMS. The chip surface was activated with EDC/NHS (N-ethyl-N′-(3-dimethylaminopropyl) carbodiimide hydrochloride and N-hydroxysuccinimide (Biacore GE Healthcare). Protein-A was diluted to 10 μg/ml in coupling buffer (10 mM acetate, pH 5.6) and injected until the appropriate immobilization level was reached (i.e. 2000 RU). Deactivation of the remaining activated groups was performed using 100 mM ethanolamine pH 8 (Biacore GE Healthcare).
Affinity study was carried out according to a standard Capture-Kinetic protocol recommended by the manufacturer (Biacore GE Healthcare kinetic wizard). Serial dilutions of human recombinant soluble dimeric CD73 proteins, ranging from 1.23 to 300 nM were sequentially injected over the captured anti-CD73 antibodies and allowed to dissociate for 10 min before regeneration. […]

[10] = biological target: T8, human CD73 mutant 2 (human, UniProt P21589 27-549); test: flow cytometry titration on HEK-293T cells transfected with CD73 mutant 2
T8 construct: Transfected in HEK-293T cells; The cell prints A1071, read as A107I
T8 chain: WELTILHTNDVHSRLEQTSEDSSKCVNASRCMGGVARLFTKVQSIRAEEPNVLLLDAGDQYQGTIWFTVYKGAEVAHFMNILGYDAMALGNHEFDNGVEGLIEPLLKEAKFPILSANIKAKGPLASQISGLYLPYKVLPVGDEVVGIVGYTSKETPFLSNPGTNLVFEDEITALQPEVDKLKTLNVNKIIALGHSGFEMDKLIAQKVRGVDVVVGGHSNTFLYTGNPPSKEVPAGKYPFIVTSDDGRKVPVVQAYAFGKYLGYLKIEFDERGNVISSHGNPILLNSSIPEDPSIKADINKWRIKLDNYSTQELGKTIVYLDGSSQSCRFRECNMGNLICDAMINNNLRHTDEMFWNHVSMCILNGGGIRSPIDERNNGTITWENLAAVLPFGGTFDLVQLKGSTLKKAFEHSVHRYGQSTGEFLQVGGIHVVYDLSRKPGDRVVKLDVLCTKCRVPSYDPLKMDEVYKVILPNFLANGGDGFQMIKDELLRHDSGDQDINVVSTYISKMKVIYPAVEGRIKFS
Procedure: as §3

| Binder | EC50 [1] | EC50 (read off the curve) [2] | EC50 (read off the curve) [3] | EC50 (read off the curve) [4] | EC50 [5] | fold higher concentration (EC50) than 7H10 [5] | EC50 (read off the curve) [6] | binding result [7] | EC50 [8] | Kd [9] | EC50 (read off the curve) [10] |
| --- | --- | --- | --- | --- | --- | --- | --- | --- | --- | --- | --- |
| antibody AD2 (Biolegend Corp, product ref. 344004) (antibody, V domains shown) VH: EVQLQQSGAELVKPGASVKLSCTASGFNIKDTYIHWVKQRPEQGLEWIGRIDPATGNTEYDPKFQGKATITADTSSNTAYLHLSSLTSEDTAVYYCARGYYGSSYPPWFAYWGQGTLVTVS VL: DIVMTQSHKFMSTSVGDRVSITCKASQDVGSAVAWYQQKPGQSPKLLIYWASTRHTGVPDRFTGSGSGTDFTLTISNVQSEDLADYFCQQYSSYPLTFGAGTKLELK | 0.431 µg/mL | ~0.07 µg/mL | ~0.2 µg/mL | ~0.06 µg/mL | 0.743 µg/mL | ~4 fold | ~0.1 µg/mL | – | – | – | – |
| antibody 12F9 (antibody, human IgG1, V domains shown) VH: QVQLQQSGPELVKPGASVRISCKASGYTFTNYYIHWVKQRPGQGLEWIGWIYPGNVNTKYNEKFKGKATLTADKSSNTAYMQLSSLTSEDSAVYFCAREGGYDRYALDYWGQGTSVTVSS VL: QIVLTQSPALMSASPGEKVTMTCSASSSVSYMYWYQQKPRSSPKPWIYLTSNLASGVPARFSGSGSGTSYSLTISSMEAEDAATYYCQQWSSNPLTFGAGTKLELK | 0.036 µg/mL | – | ~0.2 µg/mL | – | 0.137 µg/mL | – | – | no binding (tested: 10 µg/ml) | 0.527 µg/mL | 0.938 nM | ~0.2 µg/mL |
